According to US20250025478A1 (published 2025):

B1: MAP4K4 (enzyme, Homo sapiens, UniProt O95819-4 2-1165, looked up)
chain: ANDSPAKSLVDIDLSSLRDPAGIFELVEVVGNGTYGQVYKGRHVKTGQLAAIKVMDVTEDEEEEIKLEINMLKKYSHHRNIATYYGAFIKKSPPGHDDQLWLVMEFCGAGSITDLVKNTKGNTLKEDWIAYISREILRGLAHLHIHHVIHRDIKGQNVLLTENAEVKLVDFGVSAQLDRTVGRRNTFIGTPYWMAPEVIACDENPDATYDYRSDLWSCGITAIEMAEGAPPLCDMHPMRALFLIPRNPPPRLKSKKWSKKFFSFIEGCLVKNYMQRPSTEQLLKHPFIRDQPNERQVRIQLKDHIDRTRKKRGEKDETEYEYSGSEEEEEEVPEQEGEPSSIVNVPGESTLRRDFLRLQQENKERSEALRRQQLLQEQQLREQEEYKRQLLAERQKRIEQQKEQRRRLEEQQRREREARRQQEREQRRREQEEKRRLEELERRRKEEEERRRAEEEKRRVEREQEYIRRQLEEEQRHLEVLQQQLLQEQAMLLHDHRRPHPQHSQQPPPPQQERSKPSFHAPEPKAHYEPADRAREVPVRTTSRSPVLSRRDSPLQGSGQQNSQAGQRNSTSIEPRLLWERVEKLVPRPGSGSSSGSSNSGSQPGSHPGSQSGSGERFRVRSSSKSEGSPSQRLENAVKKPEDKKEVFRPLKPAGEVDLTALAKELRAVEDVRPPHKVTDYSSSSEESGTTDEEDDDVEQEGADESTSGPEDTRAASSLNLSNGETESVKTMIVHDDVESEPAMTPSKEGTLIVRQTQSASSTLQKHKSSSSFTPFIDPRLLQISPSSGTTVTSVVGFSCDGMRPEAIRQDPTRKGSVVNVNPTNTRPQSDTPEIRKYKKRFNSEILCAALWGVNLLVGTESGLMLLDRSGQGKVYPLINRRRFQQMDVLEGLNVLVTISGKKDKLRVYYLSWLRNKILHNDPEVEKKQGWTTVGDLEGCVHYKVVKYERIKFLVIALKSSVEVYAWAPKPYHKFMAFKSFGELVHKPLLVDLTVEEGQRLKVIYGSCAGFHAVDVDSGSVYDIYLPTHVRKNPHSMIQCSIKPHAIIILPNTDGMELLVCYEDEGVYVNTYGRITKDVVLQWGEMPTSVAYIRSNQTMGWGEKAIEIRSVETGHLDGVFMHKRAQRLKFLCERNDKVFFASVRSGGSSQVYFMTLGRTSLLSW
notes: Endogenous protein found by proximity labelling/MS
B2: CPEB4 (other, Homo sapiens, UniProt Q17RY0-2 1-712, looked up)
chain: MGDYGFGVLVQSNTGNKSAFPVRFHPHLQPPHHHQNATPSPAAFINNNTAANGSSAGSAWLFPAPATHNIQDEILGSEKAKSQQQEQQDPLEKQQLSPSPGQEAGILPETEKAKSEENQGDNSSENGNGKEKIRIESPVLTGFDYQEATGLGTSTQPLTSSASSLTGFSNWSAAIAPSSSTIINEDASFFHQGGVPAASANNGALLFQNFPHHVSPGFGGSFSPQIGPLSQHHPHHPHFQHHHSQHQQQRRSPASPHPPPFTHRNAAFNQLPHLANNLNKPPSPWSSYQSPSPTPSSSWSPGGGGYGGWGGSQGRDHRRGLNGGITPLNSISPLKKNFASNHIQLQKYARPSSAFAPKSWMEDSLNRADNIFPFPDRPRTFDMHSLESSLIDIMRAENDTIKARTYGRRRGQSSLFPMEDGFLDDGRGDQPLHSGLGSPHCFSHQNGERVERYSRKVFVGGLPPDIDEDEITASFRRFGPLIVDWPHKAESKSYFPPKGYAFLLFQDESSVQALIDACIEEDGKLYLCVSSPTIKDKPVQIRPWNLSDSDFVMDGSQPLDPRKTIFVGGVPRPLRAVELAMIMDRLYGGVCYAGIDTDPELKYPKGAGRVAFSNQQSYIAAISARFVQLQHGEIDKRVEVKPYVLDDQLCDECQGARCGGKFAPFFCANVTCLQYYCEYCWAAIHSRAGREFHKPLVKEGGDRPRHISFRWN
notes: as for B1
B3: ALDH1B1 (enzyme, Homo sapiens, UniProt P30837 18-517, looked up)
chain: RYSSAAALPSPILNPDIPYNQLFINNEWQDAVSKKTFPTVNPTTGEVIGHVAEGDRADVDRAVKAAREAFRLGSPWRRMDASERGRLLNRLADLVERDRVYLASLETLDNGKPFQESYALDLDEVIKVYRYFAGWADKWHGKTIPMDGQHFCFTRHEPVGVCGQIIPWNFPLVMQGWKLAPALATGNTVVMKVAEQTPLSALYLASLIKEAGFPPGVVNIITGYGPTAGAAIAQHVDVDKVAFTGSTEVGHLIQKAAGDSNLKRVTLELGGKSPSIVLADADMEHAVEQCHEALFFNMGQCCCAGSRTFVEESIYNEFLERTVEKAKQRKVGNPFELDTQQGPQVDKEQFERVLGYIQLGQKEGAKLLCGGERFGERGFFIKPTVFGGVQDDMRIAKEEIFGPVQPLFKFKKIEEVVERANNTRYGLAAAVFTRDLDKAMYFTQALQAGTVWVNTYNIVTCHTPFGGFKESGNGRELGEDGLKAYTEVKTVTIKVPQKNS
notes: Endogenous protein found by proximity labelling/MS; also called Aldehyde dehydrogenase X, mitochondrial
B4: SPTLC1 (enzyme, Homo sapiens, UniProt O15269 1-473, looked up)
chain: MATATEQWVLVEMVQALYEAPAYHLILEGILILWIIRLLFSKTYKLQERSDLTVKEKEELIEEWQPEPLVPPVPKDHPALNYNIVSGPPSHKTVVNGKECINFASFNFLGLLDNPRVKAAALASLKKYGVGTCGPRGFYGTFDVHLDLEDRLAKFMKTEEAIIYSYGFATIASAIPAYSKRGDIVFVDRAACFAIQKGLQASRSDIKLFKHNDMADLERLLKEQEIEDQKNPRKARVTRRFIVVEGLYMNTGTICPLPELVKLKYKYKARIFLEESLSFGVLGEHGRGVTEHYGINIDDIDLISANMENALASIGGFCCGRSFVIDHQRLSGQGYCFSASLPPLLAAAAIEALNIMEENPGIFAVLKEKCGQIHKALQGISGLKVVGESLSPAFHLQLEESTGSREQDVRLLQEIVDQCMNRSIALTQARYLEKEEKCLPPPSIRVVVTVEQTEEELERAASTIKEVAQAVLL
notes: Endogenous protein found by proximity labelling/MS; also called Serine palmitoyltransferase 1
B5: FLII (other, Homo sapiens, UniProt Q13045-2 1-1214, looked up)
chain: MEATGVLPFVRGVDLSGNDFKGGYFPENVKAMTSLRWLKLNRTGLCYLPEELAALQKLEHLSVSHNNLTTLHGELSSLPSLRAIVARANSLKNSGVPDDIFKLDDLSVLDLSHNQLTECPRELENAKNMLVLNLSHNRQLPAMTALQTLHLRSTQRTQSNLPTSLEGLSNLADVDLSCNDLTRVPECLYTLPSLRRLNLSSNQITELSLCIDQWVHVETLNLSRNQLTSLPSAICKLSKLKKLYLNSNKLDFDGLPSGIGKLTNLEEFMAANNNLELVPESLCRCPKLRKLVLNKNHLVTLPEAIHFLTEIEVLDVRENPNLVMPPKPADRAAEWYNIDFSLQNQLRLAGASPATVAAAAAGSGPKDPMARKMRLRRRKDSAQDDQAKQVLKGMSDVAQEKNKKQEESADARAPSGKVRRWDQGLEKPRLDYSEFFTEDVGQLPGLTIWQIENFVPVLVEEAFHGKFYEADCYIVLKTFLDDSGSLNWEIYYWIGGEATLDKKACSAIHAVNLRNYLGAECRTVREEMGDESEEFLQVFDNDISYIEGGTASGFYTVEDTHYVTRMYRVYGKKNIKLEPVPLKGTSLDPRFVFLLDRGLDIYVWRGAQATLSSTTKARLFAEKINKNERKGKAEITLLVQGQELPEFWEALGGEPSEIKKHVPEDFWPPQPKLYKVGLGLGYLELPQINYKLSVEHKQRPKVELMPRMRLLQSLLDTRCVYILDCWSDVFIWLGRKSPRLVRAAALKLGQELCGMLHRPRHATVSRSLEGTEAQVFKAKFKNWDDVLTVDYTRNAEAVLQSPGLSGKVKRDAEKKDQMKADLTALFLPRQPPMSLAEAEQLMEEWNEDLDGMEGFVLEGKKFARLPEEEFGHFYTQDCYVFLCRYWVPVEYEEEEKKEDKEEKAEGKEGEEATAEAEEKQPEEDFQCIVYFWQGREASNMGWLTFTFSLQKKFESLFPGKLEVVRMTQQQENPKFLSHFKRKFIIHRGKRKAVQGAQQPSLYQIRTNGSALCTRCIQINTDSSLLNSEFCFILKVPFESEDNQGIVYAWVGRASDPDEAKLAEDILNTMFDTSYSKQVINEGEEPENFFWVGIGAQKPYDDDAEYMKHTRLFRCSNEKGYFAVTEKCSDFCQDDLADDDIMLLDNGQEVYMWVGTQTSQVEIKLSLKACQVYIQHMRSKEHERPRRLRLVRKGNEQHAFTRCFHAWSAFCKALA
notes: Endogenous protein found by proximity labelling/MS; also called Protein flightless-1 homolog
B6: SARS2 (enzyme, Homo sapiens, UniProt Q9NP81 35-518, looked up)
chain: TTEKRNRNLLYEYAREGYSALPQLDIERFCACPEEAAHALELRKGELRSADLPAIISTWQELRQLQEQIRSLEEEKAAVTEAVRALLANQDSGEVQQDPKYQGLRARGREIRKELVHLYPREAQLEEQFYLQALKLPNQTHPDVPVGDESQARVLHMVGDKPVFSFQPRGHLEIGEKLDIIRQKRLSHVSGHRSYYLRGAGALLQHGLVNFTFNKLLRRGFTPMTVPDLLRGAVFEGCGMTPNANPSQIYNIDPARFKDLNLAGTAEVGLAGYFMDHTVAFRDLPVRMVCSSTCYRAETNTGQEPRGLYRVHHFTKVEMFGVTGPGLEQSSQLLEEFLSLQMEILTELGLHFRVLDMPTQELGLPAYRKFDIEAWMPGRGRFGEVTSASNCTDFQSRRLHIMFQTEAGELQFAHTVNATACAVPRLLIALLESNQQKDGSVLVPPALQSYLGTDRITAPTHVPLQYIGPNQPRKPGLPGQPAVS
notes: Endogenous protein found by proximity labelling/MS; also called Serine -- tRNA ligase, mitochondrial

The binders below were run against T1, RNF213-TurboID (Homo sapiens (Human), UniProt Q63HN8 1-5207) (assay: TurboID proximity biotinylation, streptavidin recovery, MS, SAINT express).
T1 construct: Recombined into HeLa FlpIn-TRex RNF213-KO cells; proximity-labelling bait; also called C-Turbo; 3×-FLAG-RNF213-TurboID; not shown: 3×-FLAG tag; TurboID biotin ligase at the C-terminus
T1 sequence (Q63HN8 whole entry N1045D): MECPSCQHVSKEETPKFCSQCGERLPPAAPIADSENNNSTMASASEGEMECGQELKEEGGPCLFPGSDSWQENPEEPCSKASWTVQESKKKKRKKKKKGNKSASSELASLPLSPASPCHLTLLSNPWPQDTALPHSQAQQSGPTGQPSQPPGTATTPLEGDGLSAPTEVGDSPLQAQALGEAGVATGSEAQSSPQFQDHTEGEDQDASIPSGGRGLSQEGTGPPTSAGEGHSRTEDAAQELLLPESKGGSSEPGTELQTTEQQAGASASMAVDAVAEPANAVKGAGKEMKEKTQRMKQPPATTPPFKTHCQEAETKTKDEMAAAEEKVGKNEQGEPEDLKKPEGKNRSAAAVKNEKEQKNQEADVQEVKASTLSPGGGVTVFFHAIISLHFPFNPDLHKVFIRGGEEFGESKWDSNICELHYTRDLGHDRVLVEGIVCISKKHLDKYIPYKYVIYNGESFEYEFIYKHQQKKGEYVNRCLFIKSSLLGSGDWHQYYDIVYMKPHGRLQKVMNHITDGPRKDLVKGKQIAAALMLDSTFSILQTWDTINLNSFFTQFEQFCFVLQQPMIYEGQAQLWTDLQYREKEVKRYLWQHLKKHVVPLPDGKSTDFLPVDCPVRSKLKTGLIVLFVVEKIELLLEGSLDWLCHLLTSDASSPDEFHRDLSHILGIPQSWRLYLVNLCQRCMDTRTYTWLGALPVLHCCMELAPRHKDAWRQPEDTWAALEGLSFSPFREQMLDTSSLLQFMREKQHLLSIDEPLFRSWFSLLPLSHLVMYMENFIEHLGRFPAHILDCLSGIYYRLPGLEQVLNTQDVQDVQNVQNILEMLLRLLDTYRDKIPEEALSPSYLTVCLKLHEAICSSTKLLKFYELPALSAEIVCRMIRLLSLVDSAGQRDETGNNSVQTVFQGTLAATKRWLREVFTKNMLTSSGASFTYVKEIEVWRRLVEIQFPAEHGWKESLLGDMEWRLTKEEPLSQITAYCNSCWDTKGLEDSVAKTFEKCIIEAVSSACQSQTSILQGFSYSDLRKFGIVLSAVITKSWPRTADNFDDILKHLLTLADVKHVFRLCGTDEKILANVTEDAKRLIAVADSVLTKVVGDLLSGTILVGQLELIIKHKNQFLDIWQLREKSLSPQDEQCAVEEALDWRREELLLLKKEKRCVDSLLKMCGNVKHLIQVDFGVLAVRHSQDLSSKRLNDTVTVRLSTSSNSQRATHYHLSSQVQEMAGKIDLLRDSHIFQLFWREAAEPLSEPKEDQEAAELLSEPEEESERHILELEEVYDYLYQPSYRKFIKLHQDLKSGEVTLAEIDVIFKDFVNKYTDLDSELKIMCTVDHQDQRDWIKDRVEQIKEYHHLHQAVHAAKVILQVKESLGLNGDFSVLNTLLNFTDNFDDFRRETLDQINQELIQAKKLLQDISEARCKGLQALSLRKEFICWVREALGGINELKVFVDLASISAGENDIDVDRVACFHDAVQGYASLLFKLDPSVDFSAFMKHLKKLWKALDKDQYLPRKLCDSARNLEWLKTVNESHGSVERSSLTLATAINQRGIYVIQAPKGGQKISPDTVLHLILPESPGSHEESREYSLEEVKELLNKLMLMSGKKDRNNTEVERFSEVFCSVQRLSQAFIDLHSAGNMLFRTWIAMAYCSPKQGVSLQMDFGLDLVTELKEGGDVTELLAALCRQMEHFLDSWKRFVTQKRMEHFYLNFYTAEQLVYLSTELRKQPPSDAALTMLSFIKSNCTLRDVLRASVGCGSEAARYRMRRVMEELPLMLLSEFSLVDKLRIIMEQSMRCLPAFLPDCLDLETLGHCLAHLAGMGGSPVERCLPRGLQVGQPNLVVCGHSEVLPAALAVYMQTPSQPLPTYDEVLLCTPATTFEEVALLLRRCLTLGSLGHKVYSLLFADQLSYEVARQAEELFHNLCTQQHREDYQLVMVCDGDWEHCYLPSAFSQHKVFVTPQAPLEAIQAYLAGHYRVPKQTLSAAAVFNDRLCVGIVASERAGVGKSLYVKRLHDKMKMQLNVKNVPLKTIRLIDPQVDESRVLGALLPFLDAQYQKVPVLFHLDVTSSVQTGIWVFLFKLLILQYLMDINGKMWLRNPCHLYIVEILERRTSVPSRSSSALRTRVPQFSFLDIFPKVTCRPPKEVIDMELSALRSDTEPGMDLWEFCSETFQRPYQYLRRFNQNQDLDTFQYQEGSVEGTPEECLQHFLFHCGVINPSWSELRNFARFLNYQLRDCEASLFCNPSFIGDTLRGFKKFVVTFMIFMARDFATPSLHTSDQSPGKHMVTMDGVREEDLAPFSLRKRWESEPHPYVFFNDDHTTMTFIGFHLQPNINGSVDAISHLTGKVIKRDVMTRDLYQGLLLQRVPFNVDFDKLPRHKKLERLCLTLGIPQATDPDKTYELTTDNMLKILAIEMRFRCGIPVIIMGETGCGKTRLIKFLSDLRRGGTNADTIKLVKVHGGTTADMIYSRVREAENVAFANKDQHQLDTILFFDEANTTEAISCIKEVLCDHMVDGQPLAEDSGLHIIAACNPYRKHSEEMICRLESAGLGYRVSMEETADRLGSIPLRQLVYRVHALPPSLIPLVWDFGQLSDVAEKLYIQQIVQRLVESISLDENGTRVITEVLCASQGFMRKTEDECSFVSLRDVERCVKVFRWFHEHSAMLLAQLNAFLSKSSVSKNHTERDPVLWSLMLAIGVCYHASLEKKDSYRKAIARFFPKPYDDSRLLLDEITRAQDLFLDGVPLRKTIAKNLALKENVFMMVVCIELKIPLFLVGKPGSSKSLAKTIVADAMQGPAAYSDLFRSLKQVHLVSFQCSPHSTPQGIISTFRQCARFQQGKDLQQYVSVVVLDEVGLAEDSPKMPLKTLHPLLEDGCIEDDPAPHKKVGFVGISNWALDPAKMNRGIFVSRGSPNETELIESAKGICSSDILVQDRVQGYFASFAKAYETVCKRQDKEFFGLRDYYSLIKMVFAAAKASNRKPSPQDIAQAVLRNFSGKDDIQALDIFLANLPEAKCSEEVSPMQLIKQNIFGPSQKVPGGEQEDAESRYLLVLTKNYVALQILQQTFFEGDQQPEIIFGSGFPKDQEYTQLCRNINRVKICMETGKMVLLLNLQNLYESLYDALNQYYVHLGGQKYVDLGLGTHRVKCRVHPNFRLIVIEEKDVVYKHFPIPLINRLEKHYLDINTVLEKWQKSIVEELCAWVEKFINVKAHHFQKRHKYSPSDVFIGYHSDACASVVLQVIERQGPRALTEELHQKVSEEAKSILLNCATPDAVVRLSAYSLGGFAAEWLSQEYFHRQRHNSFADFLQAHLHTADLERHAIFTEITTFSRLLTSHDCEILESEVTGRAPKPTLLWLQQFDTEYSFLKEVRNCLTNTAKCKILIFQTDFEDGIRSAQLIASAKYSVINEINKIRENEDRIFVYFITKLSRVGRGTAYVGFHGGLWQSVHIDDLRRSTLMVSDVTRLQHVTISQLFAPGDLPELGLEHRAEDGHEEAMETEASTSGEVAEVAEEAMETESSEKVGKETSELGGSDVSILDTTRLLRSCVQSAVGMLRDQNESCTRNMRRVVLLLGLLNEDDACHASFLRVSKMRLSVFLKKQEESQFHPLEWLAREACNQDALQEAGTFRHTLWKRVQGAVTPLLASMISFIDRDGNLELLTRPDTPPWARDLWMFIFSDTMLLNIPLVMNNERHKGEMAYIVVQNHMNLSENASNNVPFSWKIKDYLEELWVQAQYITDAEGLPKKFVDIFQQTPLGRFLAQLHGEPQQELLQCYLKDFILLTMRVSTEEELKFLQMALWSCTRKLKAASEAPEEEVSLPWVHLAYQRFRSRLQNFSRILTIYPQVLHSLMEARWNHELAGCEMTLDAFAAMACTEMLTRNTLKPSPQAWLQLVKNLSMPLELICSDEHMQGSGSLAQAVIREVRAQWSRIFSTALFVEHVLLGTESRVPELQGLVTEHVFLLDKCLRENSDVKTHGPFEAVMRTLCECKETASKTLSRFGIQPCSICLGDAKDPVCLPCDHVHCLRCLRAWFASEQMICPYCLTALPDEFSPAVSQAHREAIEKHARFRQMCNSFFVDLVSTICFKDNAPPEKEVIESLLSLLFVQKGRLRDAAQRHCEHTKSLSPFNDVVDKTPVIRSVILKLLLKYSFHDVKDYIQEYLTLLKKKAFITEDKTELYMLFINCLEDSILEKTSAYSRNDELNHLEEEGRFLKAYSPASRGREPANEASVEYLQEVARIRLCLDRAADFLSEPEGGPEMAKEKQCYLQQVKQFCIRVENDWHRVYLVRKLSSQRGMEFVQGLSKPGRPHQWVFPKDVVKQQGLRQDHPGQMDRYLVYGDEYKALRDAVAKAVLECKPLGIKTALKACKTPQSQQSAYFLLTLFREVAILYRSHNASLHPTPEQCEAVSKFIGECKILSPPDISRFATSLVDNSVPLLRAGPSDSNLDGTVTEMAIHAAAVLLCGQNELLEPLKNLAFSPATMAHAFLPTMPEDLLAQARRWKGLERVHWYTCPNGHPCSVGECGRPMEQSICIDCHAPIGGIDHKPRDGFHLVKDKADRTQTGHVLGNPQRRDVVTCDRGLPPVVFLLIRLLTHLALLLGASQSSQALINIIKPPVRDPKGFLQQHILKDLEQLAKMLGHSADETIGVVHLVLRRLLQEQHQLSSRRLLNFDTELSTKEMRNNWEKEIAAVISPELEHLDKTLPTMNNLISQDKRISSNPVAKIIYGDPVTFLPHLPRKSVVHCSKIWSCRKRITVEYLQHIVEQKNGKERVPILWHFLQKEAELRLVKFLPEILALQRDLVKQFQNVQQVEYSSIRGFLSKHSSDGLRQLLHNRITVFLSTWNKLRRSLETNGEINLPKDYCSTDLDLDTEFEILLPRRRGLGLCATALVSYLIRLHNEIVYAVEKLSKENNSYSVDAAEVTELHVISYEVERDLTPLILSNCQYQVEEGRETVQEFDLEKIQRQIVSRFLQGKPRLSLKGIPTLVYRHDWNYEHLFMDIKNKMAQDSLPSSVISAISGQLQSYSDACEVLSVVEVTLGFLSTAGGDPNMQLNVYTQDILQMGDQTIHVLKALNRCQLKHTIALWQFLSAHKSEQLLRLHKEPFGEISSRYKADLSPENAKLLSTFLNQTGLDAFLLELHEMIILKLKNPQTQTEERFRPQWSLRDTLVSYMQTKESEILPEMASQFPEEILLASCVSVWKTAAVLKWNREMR
Source text: Proteins were ranked as potential binding partners by using the SAINT express algorithm³⁶ Immunoblotting (FIG. 9A) and silver staining (FIG. 9B) confirmed that similar amounts of each sample were submitted for analysis. Relatively few proteins labelled by N-Turbo were labelled to an extent greater than their labeling by Control-Turbo (FIG. 9C). […] Among the other top candidates were the major K63-deubiquitinase and NF-κB regulator CYLD and its interacting protein SPATA2 (FIG. 2B, orange-colored arrows). […] Other top C-Turbo interactors included proteins involved in VEGF signaling, which is induced in hypoxia (FLII, MYOF^{39,40}), inflammation and atherosclerosis (MAP4K4, SPTLC1^{41,42}), lipotoxicity (SPTLC1, ALDH1B1^{43,44}), ischemia response (CPEB4⁴⁵), and stroke (SARS2⁴⁶). Top N-Turbo interactors included CYP51A1, which plays a crucial role in cholesterol metabolism and atherosclerosis⁴⁷.
Cells were cultured in standard media but with 10% tetracycline (Tet)-free FBS (Clonetech) for at least 1 week. Tet-free/biotin-free FBS was generated by incubating Tet-free FBS with sterile streptavidin beads overnight followed by centrifugation to remove the beads. N-Turbo, C-Turbo, and Turbo proteins were induced by adding 1 μg/ml Dox to cells for 36 hours. For the last ten min. of incubation, 500 μM of biotin was added to the medium. Labelling reactions was terminated by removing the medium and adding ice-cold PBS to plates, which were kept on ice. Lysates were collected in RIPA buffer without Na-deoxycholate, and biotin-labelled proteins were collected by incubating with high-capacity streptavidin agarose beads for 4 hours at 4° C.

| Binder | binding result |
| --- | --- |
| B1 | binds |
| B2 | binds |
| B3 | binds |
| B4 | binds |
| B5 | binds |
| B6 | binds |
